{
  "source": "paper PMC10288612",
  "binders": {"B1": {"name": "trimer (ssDNA)", "DNA": "GCAGCGGTGTGGGGGCAGCGGTGTGGGGGCAGCGGTGTGGGGTTTTT"}, "B2": {"name": "monomer (ssDNA)", "DNA": "GCAGCGGTGTGGGG"}, "B3": {"name": "dimer (ssDNA)", "DNA": "TTTTTTGCAGCGGTGTGGGGGCAGCGGTGTGGGG"}, "B4": {"name": "monomer-T (monomer-9T) (ssDNA)", "DNA": "TTTTTTTTTGCAGCGGTGTGGGG"}},
  "data": [
    {"biological_target": "HER-2/neu extracellular domain (ErbB2) (human, UniProt P04626 23-652)", "assay": "electrochemical bead sandwich assay", "units": {"Kd": "pM"}, "values": [
      {"binder": "B1", "Kd": 0.0261},
      {"binder": "B2", "Kd": 0.121},
      {"binder": "B3", "Kd": 0.0374},
      {"binder": "B4", "Kd": 0.085}
    ]}
  ]
}
